In patent US20180155427A1 (Novartis, published 2018):

Key:
[1] = target: T1, human PD-1 expressed on cells (human, UniProt Q15116 25-288); experiment: rank among the 16 humanized clones in competition with Alexa 488-labeled murine mAb BAP049 on PD-1-expressing 300.19 cells, second experiment
T1 construct: whole, on cells; Treated as one molecule; also called PD-1 expressing Jurkat cells; human PD-1 transfected Jurkat cells
Method: (§1) Incubations with the mAb mixtures having different concentration ratios of test mAb to labeled mAb was at 4° C. for 30 min. Bound labeled murine mAb was then quantified using a FACS machine. The experiment was performed twice.

[2] = target: T1, human PD-1 expressed on cells; experiment: rank among the 16 humanized clones in competition with Alexa 488-labeled murine mAb BAP049 on PD-1-expressing 300.19 cells, first experiment
Method: as §1

[3] = target: T1, human PD-1 expressed on cells; experiment: rank among the 16 humanized clones by FACS binding data on PD-1-expressing cells
[4] = target: T1, human PD-1 expressed on cells; experiment: FACS blocking assay on PD-1-expressing 300.19 cells; blocked ligand at constant concentration: PD-L1-huIgG1 Fc fusion protein (legend paragraph 211 names 'PD-L1-Ig and PD-L2-Ig' for FIG. 8A); bound ligand detected with PE anti-human IgG F(ab')2
Method: Incubation was at 4° C. for 30 min. Bound ligand fusion proteins were detected with PE-conjugated F(ab′)2 fragment of goat anti-human IgG which doesn't recognize IgG4 mAbs (Southern Biotech 2043-09), and flow cytometry.

T1 sequence (Q15116 25-288): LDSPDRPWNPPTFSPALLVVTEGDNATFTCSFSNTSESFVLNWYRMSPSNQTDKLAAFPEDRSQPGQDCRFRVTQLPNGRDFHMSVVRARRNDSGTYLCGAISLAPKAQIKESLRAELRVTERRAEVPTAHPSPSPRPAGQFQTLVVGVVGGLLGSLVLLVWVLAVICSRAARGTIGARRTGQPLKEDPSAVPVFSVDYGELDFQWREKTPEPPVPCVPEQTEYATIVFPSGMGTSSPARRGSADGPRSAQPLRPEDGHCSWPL

Binder	Competition Binding 2nd exp. (rank) [1]	Competition Binding 1st exp. (rank) [2]	Ranking FACS data [3]	IC50 (read off the curve) [4] [µg/mL]
humanized mAb BAP049-hum16 (antibody, human IgG4 S228P, kappa, V domains shown, Human IgG4(S228P), human kappa; tested as concentrated supernatant of transiently transfected CHO cells) VH: EVQLVQSGAEVKKPGESLRISCKGSGYTFTTYWMHWVRQAPGQGLEWMGNIYPGTGGSNFDEKFKNRFTISRDNSKNTLYLQMNSLRAEDTAVYYCTRWTTGTGAYWGQGTTVTVSS VL: EIVLTQSPDFQSVTPKEKVTITCKSSQSLLDSGNQKNFLTWYQQKPGQAPRLLIYWASTRESGVPSRFSGSGSGTDFTFTISSLEAEDAATYYCQNDYSYPYTFGQGTKVEIKR	15	16	15	
humanized mAb BAP049-hum03 (antibody, human IgG4 S228P, kappa, V domains shown, Human IgG4(S228P), human kappa; tested as concentrated supernatant of transiently transfected CHO cells) VH: EVQLVQSGAEVKKPGESLRISCKGSGYTFTTYWMHWIRQSPSRGLEWLGNIYPGTGGSNFDEKFKNRFTISRDNSKNTLYLQMNSLRAEDTAVYYCTRWTTGTGAYWGQGTTVTVSS VL: DIQMTQSPSSLSASVGDRVTITCKSSQSLLDSGNQKNFLTWYQQKPGQAPRLLIYWASTRESGIPPRFSGSGYGTDFTLTINNIESEDAAYYFCQNDYSYPYTFGQGTKVEIKR	14	8	7	
humanized mAb BAP049-hum08 (antibody, human IgG4 S228P, kappa, Human IgG4(S228P), human kappa; tested as concentrated supernatant of transiently transfected CHO cells; also called Clone No. 08) heavy: not shown light: EIVLTQSPDFQSVTPKEKVTITCKSSQSLLDSGNQKNFLTWYQQKPGQAPRLLIYWASTRESGVPSRFSGSGSGTDFTFTISSLEAEDAATYYCQNDYSYPYTFGQGTKVEIKRTVAAPSVFIFPPSDEQLKSGTASVVCLLNNFYPREAKVQWKVDNALQSGNSQESVTEQDSKDSTYSLSSTLTLSKADYEKHKVYACEVTHQGLSSPVTKSFNRGEC	4	7	7	
humanized mAb BAP049-hum04 (antibody, human IgG4 S228P, kappa, V domains shown, Human IgG4(S228P), human kappa; tested as concentrated supernatant of transiently transfected CHO cells) VH: EVQLVQSGAEVKKPGESLRISCKGSGYTFTTYWMHWIRQSPSRGLEWLGNIYPGTGGSNFDEKFKNRFTISRDNSKNTLYLQMNSLRAEDTAVYYCTRWTTGTGAYWGQGTTVTVSS VL: EIVLTQSPATLSLSPGERATLSCKSSQSLLDSGNQKNFLTWYQQKPGKAPKLLIYWASTRESGVPSRFSGSGSGTDFTFTISSLQPEDIATYYCQNDYSYPYTFGQGTKVEIKR	15	15	14	
humanized mAb BAP049-hum14 (antibody, human IgG4 S228P, kappa, Human IgG4(S228P), human kappa; tested as concentrated supernatant of transiently transfected CHO cells) heavy: not shown light: EIVLTQSPATLSLSPGERATLSCKSSQSLLDSGNQKNFLTWYQQKPGQAPRLLIYWASTRESGVPSRFSGSGSGTDFTFTISSLEAEDAATYYCQNDYSYPYTFGQGTKVEIKRTVAAPSVFIFPPSDEQLKSGTASVVCLLNNFYPREAKVQWKVDNALQSGNSQESVTEQDSKDSTYSLSSTLTLSKADYEKHKVYACEVTHQGLSSPVTKSFNRGEC	15	7	16	
humanized mAb BAP049-hum15 (antibody, human IgG4 S228P, kappa, Human IgG4(S228P), human kappa; tested as concentrated supernatant of transiently transfected CHO cells) heavy: not shown light: EIVLTQSPDFQSVTPKEKVTITCKSSQSLLDSGNQKNFLTWYQQKPGQAPRLLIYWASTRESGVPSRFSGSGSGTDFTFTISSLEAEDAATYYCQNDYSYPYTFGQGTKVEIKRTVAAPSVFIFPPSDEQLKSGTASVVCLLNNFYPREAKVQWKVDNALQSGNSQESVTEQDSKDSTYSLSSTLTLSKADYEKHKVYACEVTHQGLSSPVTKSFNRGEC	15	7	6	
humanized mAb BAP049-hum11 (antibody, human IgG4 S228P, kappa, Human IgG4(S228P), human kappa; tested as concentrated supernatant of transiently transfected CHO cells; also called Clone No. 11) heavy: not shown light: EIVLTQSPATLSLSPGERATLSCKSSQSLLDSGNQKNFLTWYQQKPGQAPRLLIYWASTRESGVPSRFSGSGSGTDFTFTISSLEAEDAATYYCQNDYSYPYTFGQGTKVEIKRTVAAPSVFIFPPSDEQLKSGTASVVCLLNNFYPREAKVQWKVDNALQSGNSQESVTEQDSKDSTYSLSSTLTLSKADYEKHKVYACEVTHQGLSSPVTKSFNRGEC	> 4	4	6	
humanized mAb BAP049-hum09 (antibody, human IgG4 S228P, kappa, Human IgG4(S228P), human kappa; tested as concentrated supernatant of transiently transfected CHO cells; also called Clone No. 09) heavy: not shown light: EIVLTQSPDFQSVTPKEKVTITCKSSQSLLDSGNQKNFLTWYQQKPGQAPRLLIYWASTRESGVPSRFSGSGSGTDFTFTISSLEAEDAATYYCQNDYSYPYTFGQGTKVEIKRTVAAPSVFIFPPSDEQLKSGTASVVCLLNNFYPREAKVQWKVDNALQSGNSQESVTEQDSKDSTYSLSSTLTLSKADYEKHKVYACEVTHQGLSSPVTKSFNRGEC	4	2	7	
humanized mAb BAP049-hum01 (antibody, human IgG4 S228P, kappa, V domains shown, Human IgG4(S228P), human kappa; tested as concentrated supernatant of transiently transfected CHO cells; also called Clone No. 01) VH: EVQLVQSGAEVKKPGESLRISCKGSGYTFTTYWMHWVRQATGQGLEWMGNIYPGTGGSNFDEKFKNRVTITADKSTSTAYMELSSLRSEDTAVYYCTRWTTGTGAYWGQGTTVTVSS VL: EIVLTQSPATLSLSPGERATLSCKSSQSLLDSGNQKNFLTWYQQKPGQAPRLLIYWASTRESGVPSRFSGSGSGTEFTLTISSLQPDDFATYYCQNDYSYPYTFGQGTKVEIKR	2	7	2	~1
humanized mAb BAP049-hum06 (antibody, human IgG4 S228P, kappa, Human IgG4(S228P), human kappa; tested as concentrated supernatant of transiently transfected CHO cells) heavy: not shown light: DIVMTQTPLSLPVTPGEPASISCKSSQSLLDSGNQKNFLTWYQQKPGQAPRLLIYWASTRESGVPSRFSGSGSGTDFTFTISSLEAEDAATYYCQNDYSYPYTFGQGTKVEIKRTVAAPSVFIFPPSDEQLKSGTASVVCLLNNFYPREAKVQWKVDNALQSGNSQESVTEQDSKDSTYSLSSTLTLSKADYEKHKVYACEVTHQGLSSPVTKSFNRGEC	3	7	1	
humanized mAb BAP049-hum05 (antibody, human IgG4 S228P, kappa, V domains shown, Human IgG4(S228P), human kappa; tested as concentrated supernatant of transiently transfected CHO cells; also called Clone No. 05) VH: EVQLVQSGAEVKKPGESLRISCKGSGYTFTTYWMHWVRQATGQGLEWMGNIYPGTGGSNFDEKFKNRVTITADKSTSTAYMELSSLRSEDTAVYYCTRWTTGTGAYWGQGTTVTVSS VL: EIVLTQSPATLSLSPGERATLSCKSSQSLLDSGNQKNFLTWYQQKPGKAPKLLIYWASTRESGVPSRFSGSGSGTDFTFTISSLQPEDIATYYCQNDYSYPYTFGQGTKVEIKR	> 4	5	5	~1
humanized mAb BAP049-hum07 (antibody, human IgG4 S228P, kappa, Human IgG4(S228P), human kappa; tested as concentrated supernatant of transiently transfected CHO cells) heavy: not shown light: EIVLTQSPATLSLSPGERATLSCKSSQSLLDSGNQKNFLTWYQQKPGKAPKLLIYWASTRESGVPSRFSGSGSGTDFTFTISSLEAEDAATYYCQNDYSYPYTFGQGTKVEIKRTVAAPSVFIFPPSDEQLKSGTASVVCLLNNFYPREAKVQWKVDNALQSGNSQESVTEQDSKDSTYSLSSTLTLSKADYEKHKVYACEVTHQGLSSPVTKSFNRGEC	> 4	7	4	
humanized mAb BAP049-hum13 (antibody, human IgG4 S228P, kappa, Human IgG4(S228P), human kappa; tested as concentrated supernatant of transiently transfected CHO cells) heavy: not shown light: DVVMTQSPLSLPVTLGQPASISCKSSQSLLDSGNQKNFLTWYQQKPGKAPKLLIYWASTRESGVPSRFSGSGSGTDFTFTISSLEAEDAATYYCQNDYSYPYTFGQGTKVEIKRTVAAPSVFIFPPSDEQLKSGTASVVCLLNNFYPREAKVQWKVDNALQSGNSQESVTEQDSKDSTYSLSSTLTLSKADYEKHKVYACEVTHQGLSSPVTKSFNRGEC	1	1	6	
chimeric antibody BAP049-chi (Tyr) (antibody, human IgG4 S228P, kappa, V domains shown, Murine variable regions, human IgG4(S228P), human kappa; also called BAP049-chi-Y; Chi mAb (Tyr)) VH: QVQLQQSGSELVRPGASVKLSCKASGYTFTTYWMHWVRQRPGQGLEWIGNIYPGTGGSNFDEKFKNRTSLTVDTSSTTAYMHLASLTSEDSAVYYCTRWTTGTGAYWGQGTTVTVSS VL: DIVMTQSPSSLTVTAGEKVTMSCKSSQSLLDSGNQKNFLTWYQQKPGQPPKLLIFWASTRESGVPDRFTGSGSVTDFTLTISSVQAEDLAVYYCQNDYSYPYTFGQGTKVEIKR				~0.8
humanized mAb BAP049-hum02 (antibody, human IgG4 S228P, kappa, V domains shown, Human IgG4(S228P), human kappa; tested as concentrated supernatant of transiently transfected CHO cells) VH: EVQLVQSGAEVKKPGESLRISCKGSGYTFTTYWMHWVRQATGQGLEWMGNIYPGTGGSNFDEKFKNRVTITADKSTSTAYMELSSLRSEDTAVYYCTRWTTGTGAYWGQGTTVTVSS VL: DIQMTQSPSSLSASVGDRVTITCKSSQSLLDSGNQKNFLTWYQQKPGQAPRLLIYWASTRESGIPPRFSGSGYGTDFTLTINNIESEDAAYYFCQNDYSYPYTFGQGTKVEIKR	2	3	6	
humanized mAb BAP049-hum12 (antibody, human IgG4 S228P, kappa, V domains shown, Human IgG4(S228P), human kappa; tested as concentrated supernatant of transiently transfected CHO cells) VH: EVQLVQSGAEVKKPGESLRISCKGSGYTFTTYWMHWVRQATGQGLEWMGNIYPGTGGSNFDEKFKNRVTITADKSTSTAYMELSSLRSEDTAVYYCTRWTTGTGAYWGQGTTVTVSS VL: DIQMTQSPSSLSASVGDRVTITCKSSQSLLDSGNQKNFLTWYLQKPGQSPQLLIYWASTRESGVPSRFSGSGSGTDFTFTISSLEAEDAATYYCQNDYSYPYTFGQGTKVEIKR	16	8	3	
